Assay results: patent EP2922560B1 (Biotechnologicky Ustav AV CR, v.v.i., dated 2017)
Substitutions are numbered along the chain they refer to.

B1: DH-MBP-p19, double His6-maltose-binding protein-p19 fusion with C-terminal 40 aa prolongation (ligand, human)
chain: RAVPGGSSPAWTQCQQLSQKLCTLAWSAHPLVGHMDLREEGDEETTNDVPHIQCGDGCDPQGLRDNSQFCLQRIHQGLIFYEKLLGSDIFTGEPSLLPDSPVGQLHASLLGLSQLLQPEGHHWETQQIPSLSPSQPWQRLLLRFKILRSLQAFVAVAARVFAHGAATLSPLEKKTCTSRASSTTTTTTEIRLLTKPERKLSWLLPPLSNN
notes: 69 kDa, soluble, E. coli BL21(DE3), Ni-NTA purified; also called soluble p19; p19-MBP fusion protein; not shown: N-terminal double His6 tag; followed by TEV site and cloning-site residues that are not pri
B2: DH-p19, mature p19 subunit of human IL-23 with N-terminal double-His6-TEV tag (ligand, UniProt Q9NPF7 20-189, looked up)
chain: RAVPGGSSPAWTQCQQLSQKLCTLAWSAHPLVGHMDLREEGDEETTNDVPHIQCGDGCDPQGLRDNSQFCLQRIHQGLIFYEKLLGSDIFTGEPSLLPDSPVGQLHASLLGLSQLLQPEGHHWETQQIPSLSPSQPWQRLLLRFKILRSLQAFVAVAARVFAHGAATLSP
notes: mature; not shown: N-terminal double-His6-TEV purification tag
B3: His6-REX125-TolA-AVI (designed binder)
chain: LAEAKVLANRELDKYGVSDHYKNWINPARRVRPVKWLIDAILAALPQKQAEEAAAKAAADAKAKAEADAKAAEEAAKKAAADAKKKAEAEAAKAAAEAQKKAEAAAAALKKKAEAAEAAAAEARKKAATEAAEKAKAEAEKKAAAEKAAADKKAAAEKAAADKKAAEKAAAEKAAADKKAAAEKAAADKKAAAAKAAAEKAAAAKAAAEADDIFGELSSGKNAPKTGGGAKGNNASPAGSGNTKNNGASGADINNYAGQIKSAIESKFYDASSYAGKTCTLRIKLAPDGMLLDIKPEGGDPALCQAALAAAKLAKIPKPPSQAVYEVFKNAPLDFKPGLNDIFEAQKIEWHE
modifications: in vivo biotinylated at the AviTag (BirA)
notes: also called REX-TolA-AVI; not shown: N-terminal His6 tag
B4: His6-REX009-TolA-AVI (designed binder)
chain: B3 chain with H20Y, W24R, R29C, R30H, R32L, P33S, W36S, L37N, A40W, A44S
modifications: in vivo biotinylated at the AviTag (BirA)
notes: as for B3
B5: His6-REX115-TolA-AVI (designed binder, not shown: small tags and cut ends)
chain: B3 chain with H20V, W24T, P27I, R29I, R30P, P33V, W36R, L37V, A40W, A44V
modifications: in vivo biotinylated at the AviTag (BirA)

Key:
[1] = target: T1, H-exIL-23R, N-terminally His6-tagged extracellular domain of human IL-23 receptor (residues 24 to 350) (human, UniProt Q5VWK5 24-350); test: ELISA, immobilized exIL-23R (Figure 1 legend)
T1 construct: range 24-350; also called recombinant extracellular IL-23 receptor; not shown: N-terminal His6 tag
T1 sequence (looked up): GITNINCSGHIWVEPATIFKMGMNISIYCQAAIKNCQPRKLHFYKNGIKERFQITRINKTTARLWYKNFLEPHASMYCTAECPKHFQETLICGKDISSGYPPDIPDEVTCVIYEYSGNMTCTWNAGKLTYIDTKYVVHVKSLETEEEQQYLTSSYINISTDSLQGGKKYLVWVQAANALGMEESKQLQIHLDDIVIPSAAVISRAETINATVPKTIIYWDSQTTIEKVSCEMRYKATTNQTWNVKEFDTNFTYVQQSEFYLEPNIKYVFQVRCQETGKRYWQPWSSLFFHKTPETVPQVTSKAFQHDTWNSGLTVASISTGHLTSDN

[2] = target: T1, H-exIL-23R, N-terminally His6-tagged …; test: ELISA, immobilized H-exIL-23R; confirmed in the reversed setup
[3] = target: T2, native human IL-23 receptor on the surface of cultured human cells (K-562, THP-1, Jurkat) and primary human … (human, UniProt Q5VWK5 24-629); test: flow cytometry on THP-1 and K-562 cells, 10 µg/ml DH-p19, anti-p19 mAb and Cy5 anti-mouse IgG
T2 construct: whole, on cells; endogenous expression; the cell line is named under assay; also called cell surface IL-23R
T2 sequence (looked up): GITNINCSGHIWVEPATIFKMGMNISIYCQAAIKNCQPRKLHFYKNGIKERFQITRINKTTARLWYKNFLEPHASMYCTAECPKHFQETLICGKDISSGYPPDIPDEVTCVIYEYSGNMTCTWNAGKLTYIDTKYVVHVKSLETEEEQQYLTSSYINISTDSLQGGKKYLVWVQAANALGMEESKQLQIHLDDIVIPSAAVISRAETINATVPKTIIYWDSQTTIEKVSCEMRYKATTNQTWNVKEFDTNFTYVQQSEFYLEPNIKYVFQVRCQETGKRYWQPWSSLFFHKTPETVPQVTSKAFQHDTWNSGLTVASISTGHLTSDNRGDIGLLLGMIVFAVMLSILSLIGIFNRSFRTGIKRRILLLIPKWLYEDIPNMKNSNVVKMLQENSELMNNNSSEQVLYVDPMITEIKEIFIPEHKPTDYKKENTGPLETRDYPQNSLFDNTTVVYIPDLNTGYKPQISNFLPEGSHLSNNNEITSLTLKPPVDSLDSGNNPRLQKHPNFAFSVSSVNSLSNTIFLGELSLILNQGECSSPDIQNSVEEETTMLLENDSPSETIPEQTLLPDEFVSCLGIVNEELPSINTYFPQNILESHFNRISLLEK

[4] = target: T2, native human IL-23 receptor on the …; test: cell-based or functional assay
[5] = target: T3, recombinant human IL-23R-IgG chimera (R&D Systems) (human, UniProt Q5VWK5 24-353, glycosylated); test: SPR, REX125-TolA-AVI immobilized, IL-23R-IgG chimera flowed, sodium acetate buffer pH 5.0, 25°C; more complex interaction mode
T3 construct: bought; soluble, glycosylated, secreted by an NS0-derived mouse myeloma cell line; also called IL-23R-IgG receptor chimera

[6] = target: T3, recombinant human IL-23R-IgG chimera …; test: SPR, REX009-TolA-AVI immobilized, IL-23R-IgG chimera 20-200 nM flowed, sodium acetate buffer pH 5.0, 25°C, 1:1 model, global fit

Binder	Th-17+ cell expansion (IL-17-producing cells) in PBMC suspensions after 3 days, normalized to IL-23 only = 1 [4]	Th-17+ cell expansion in separated T-cell samples after 3 days, normalized to IL-23 only = 1 [4]	also measured
B1			binding result [1]: binds
B2			binding result [2]: binds; binding result [3]: binds
B3	0.42 normalized cell count (IL-23 only = 1)	0.65 normalized cell count (IL-23 only = 1)	Kd [5]: ~1 nM
B4	0.62 normalized cell count (IL-23 only = 1)	0.8 normalized cell count (IL-23 only = 1)	Kd [6]: 1.3 nM
B5	0.55 normalized cell count (IL-23 only = 1)	0.69 normalized cell count (IL-23 only = 1)	
